Target: the molecule itself
Experiment: SEC-MALS; 25 °C, Superdex 200 Increase 10/300 GL, ~2 mg/mL, 100 μL injected, 25 mM Tris-HCl pH 8.0, 150 mM NaCl

B1: periplasmic part of MreC (residues 36-367) from Escherichia coli (domain or fragment, E. coli, UniProt P16926 36-367, looked up)
chain: SQIRTYMDTAVSPFYFVSNAPRELLDGVSQTLASRDQLELENRALRQELLLKNSELLMLGQYKQENARLRELLGSPLRQDEQKMVTQVISTVNDPYSDQVVIDKGSVNGVYEGQPVISDKGVVGQVVAVAKLTSRVLLICDATHALPIQVLRNDIRVIAAGNGCTDDLQLEHLPANTDIRVGDVLVTSGLGGRFPEGYPVAVVSSVKLDTQRAYTVIQARPTAGLQRLRYLLLLWGADRNGANPMTPEEVHRVANERLMQMMPQVLPSPDAMGPKLPEPATGIAQPTPQQPATGNAATAPAAPTQPAANRSPQRATPPQSGAQPPARAPGGQ
notes: Cell shape-determining protein MreC, E. coli BL21(DE3) strain, residues 36-367, lacks the N-terminal transmembrane region; holds the coiled coil, two six-stranded beta-barrels and the pro-rich region; the cDNA came from strain BL21(DE3); pET21b usually adds a C-terminal His6 (surmised); About 37 kDa per chain as printed; also called truncated MreC; major periplasmic domain of MreC; source: E. …
stoichiometry N: 2

From article PMC8804602 (FEBS Open Bio, 2022)
